Results published in the RNAGym collection of RNA variant scans (doi:10.1093/nar/gkz1192).

B1: CPEB3 Ribozyme (parent)
chain: UAACAGGGGGCCACAGCAGAAGCGUUCACGUCGCAGCCCCUGUCAGAUUCUGGUGAAUCUGCGAAUUCUGCUGUAUAUCUC

Variants of: B1
Assay: self-cleavage, relative activity (ratio to wild type); higher = more cleavage; in vitro, sequencing
Outline: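 Barcoded CPEB3 ribozyme mutants, produced by rounds of error-prone PCR, self-cleaved while being transcribed with T7 RNA polymerase for 5 hours at 37°C and during a subsequent 15 min DNase I step before EDTA was added. Sequencing of template-switched cDNA on Illumina gave cleaved and total reads, and DNA sequencing assigned barcodes to variants. Each variant's relative activity is its cleaved/total read fraction divided by the unmutated ribozyme's fraction, averaged across three batches. A variant needed a minimum of 5 reads.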

Variant	self-cleavage
UAACAGGGGGCCACAGCAGAAGCGUUCACGUCGCAGCCCCUGUCAGAUUCUGGUGAAUCGGCGAAUUCUGCCGUAUAUCUC [U60G U72C]	0.32
UAACAGGGGGCCACAGCAGAAGCGUUCACGUCGCAGCCCCUGUCAGAUUCUGGUGAAUCGGCGAAUUCUGCGGUAUAUCUC [U60G U72G]	0.28
UAACAGGGGGCCACAGCAGAAGCGUUCACGUCGCAGCCCCUGUCAGAUUCUGGUGAAUCGGCGAAUUCUGCAGUAUAUCUC [U60G U72A]	0.22
UAACAGGGGGCCACAGCAGAAGCGUUCACGUCGCAGCCCCUGUCAGAUUCUGGUGAAUCUACGAAUUCUGCUAUAUAUCUC [G61A G73A]	1.21
UAACAGGGGGCCACAGCAGAAGCGUUCACGUCGCAGCCCCUGUCAGAUUCUGGUGAAUCGGCGUAUUCUGCUGUAUAUCUC [U60G A64U]	0.21
UAACAGGGGGCCACAGCAGAAGCGUUCACGUCGCAGCCCCUGUCAGAUUCUGGUGAAUCGGCGGAUUCUGCUGUAUAUCUC [U60G A64G]	0.42
UAACAGGGGGCCACAGCAGAAGCGUUCACGUCGCAGCCCCUGUCAGAUUCUGGUGAAUCGGCGAACUCUGCUGUAUAUCUC [U60G U66C]	0.15
UAACAGGGGGCCACAGCAGAAGCGUUCACGUCGCAGCCCCUGUCAGAUUCUGGUGAAUCGGCGAAGUCUGCUGUAUAUCUC [U60G U66G]	0.24
UAACAGGGGGCCACAGCAGAAGCGUUCACGUCGCAGCCCCUGUCAGAUUCUGGUGAAUCCGCGAAUUCUGCAGUAUAUCUC [U60C U72A]	0.37
UAACAGGGGGCCACAGCAGAAGCGUUCACGUCGCAGCCCCUGUCAGAUUCUGGUGAAUCCGCGAAUUCUGCCGUAUAUCUC [U60C U72C]	0.53
UAACAGGGGGCCACAGCAGAAGCGUUCACGUCGCAGCCCCUGUCAGAUUCUGGUGAAUCCGCGAAUUCUGCGGUAUAUCUC [U60C U72G]	0.39
UAACAGGGGGCCACAGCAGAAGCGUUCACGUCGCAGCCCCUGUCAGAUUCUGGUGAAUCCGCGAAUUCUGCUGUAUAUCCC [U60C U80C]	0.57
UAACAGGGGGCCACAGCAGAAGCGUUCACGUCGCAGCCCCUGUCAGAUUCUGGUGAAUCCGCGAAUUCUGCUGUAUAUCGC [U60C U80G]	0.44
UAACAGGGGGCCACAGCAGAAGCGUUCACGUCGCAGCCCCUGUCAGAUUCUGGUGAAUCCGCGAAUUCUGCUGUAUAUCAC [U60C U80A]	0.61
UAACAGGGGGCCACAGCAGAAGCGUUCACGUCGCAGCCCCUGUCAGAUUCUGGUGAAUCUACGAAUUCUGCUGUAUAUCGC [G61A U80G]	1
UAACAGGGGGCCACAGCAGAAGCGUUCACGUCGCAGCCCCUGUCAGAUUCUGGUGAAUCUACGAAUUCUGCUGUAUAUCAC [G61A U80A]	0.91
UAACAGGGGGCCACAGCAGAAGCGUUCACGUCGCAGCCCCUGUCAGAUUCUGGUGAAUCUACGAAUUCUGCUGUAUAUCCC [G61A U80C]	0.9

Variant	self-cleavage
UAACAGGGGGCCACAGCAGAAGCGUUCACGUCGCAGCCCCUGUCAGAUUCUGGUGAAUCGGCGAAUUCUGCUGUAUAUCUC [U60G]	0.48
UAACAGGGGGCCACAGCAGAAGCGUUCACGUCGCAGCCCCUGUCAGAUUCUGGUGAAUCGGCGAGUUCUGCUGUAUAUCUC [U60G A65G]	0.24
UAACAGGGGGCCACAGCAGAAGCGUUCACGUCGCAGCCCCUGUCAGAUUCUGGUGAAUCUACGAACUCUGCUGUAUAUCUC [G61A U66C]	0.39
UAACAGGGGGCCACAGCAGAAGCGUUCACGUCGCAGCCCCUGUCAGAUUCUGGUGAAUCGGCGAAUUCCGCUGUAUAUCUC [U60G U69C]	0.23
UAACAGGGGGCCACAGCAGAAGCGUUCACGUCGCAGCCCCUGUCAGAUUCUGGUGAAUCGGCGAAUUCAGCUGUAUAUCUC [U60G U69A]	0.39
UAACAGGGGGCCACAGCAGAAGCGUUCACGUCGCAGCCCCUGUCAGAUUCUGGUGAAUCGGCGAAUUCUGCUGCAUAUCUC [U60G U74C]	0.88
UAACAGGGGGCCACAGCAGAAGCGUUCACGUCGCAGCCCCUGUCAGAUUCUGGUGAAUCGGCGAAUUCUGCUGAAUAUCUC [U60G U74A]	0.82
UAACAGGGGGCCACAGCAGAAGCGUUCACGUCGCAGCCCCUGUCAGAUUCUGGUGAAUCGGCGAAUUCUGCUGUAUGUCUC [U60G A77G]	0.47
UAACAGGGGGCCACAGCAGAAGCGUUCACGUCGCAGCCCCUGUCAGAUUCUGGUGAAUCGGCGAAUUCUGCUGUAUUUCUC [U60G A77U]	0.38
UAACAGGGGGCCACAGCAGAAGCGUUCACGUCGCAGCCCCUGUCAGAUUCUGGUGAAUCUCCGGAUUCUGCUGUAUAUCUC [G61C A64G]	0.19
UAACAGGGGGCCACAGCAGAAGCGUUCACGUCGCAGCCCCUGUCAGAUUCUGGUGAAUCUCCGUAUUCUGCUGUAUAUCUC [G61C A64U]	0.32
UAACAGGGGGCCACAGCAGAAGCGUUCACGUCGCAGCCCCUGUCAGAUUCUGGUGAAUCUACGAAUUCUGCCGUAUAUCUC [G61A U72C]	0.73
UAACAGGGGGCCACAGCAGAAGCGUUCACGUCGCAGCCCCUGUCAGAUUCUGGUGAAUCUACGAAUUCUGCAGUAUAUCUC [G61A U72A]	0.3
UAACAGGGGGCCACAGCAGAAGCGUUCACGUCGCAGCCCCUGUCAGAUUCUGGUGAAUCGGCGAAUUCUACUGUAUAUCUC [U60G G70A]	0.21
UAACAGGGGGCCACAGCAGAAGCGUUCACGUCGCAGCCCCUGUCAGAUUCUGGUGAAUCUCCGAAUUCUGCUGUAUAUCUC [G61C]	0.34
UAACAGGGGGCCACAGCAGAAGCGUUCACGUCGCAGCCCCUGUCAGAUUCUGGUGAAUCUACGAAUUCUGCUGUAUAUCUC [G61A]	0.75
UAACAGGGGGCCACAGCAGAAGCGUUCACGUCGCAGCCCCUGUCAGAUUCUGGUGAAUCGGCGAAUCCUGCUGUAUAUCUC [U60G U67C]	0.13
